The values that follow come from article PMC2700736.

Holding throughout (test): filter binding
Series [1] addresses T1, I-SceI wild-type (UniProt P03882 1-235).
T1 sequence: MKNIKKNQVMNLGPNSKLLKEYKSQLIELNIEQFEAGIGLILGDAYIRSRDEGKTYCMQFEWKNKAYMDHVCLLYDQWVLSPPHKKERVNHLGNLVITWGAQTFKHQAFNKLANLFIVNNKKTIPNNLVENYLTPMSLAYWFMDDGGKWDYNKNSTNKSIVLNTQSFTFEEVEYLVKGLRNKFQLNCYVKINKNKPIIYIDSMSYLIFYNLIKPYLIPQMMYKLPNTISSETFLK

In series [2] the target is T1, I-SceI wild-type. This is another data set of the same source.
The target in series [3] is T2, I-SceI K223I (UniProt P03882 1-235, K223I).
T2 sequence: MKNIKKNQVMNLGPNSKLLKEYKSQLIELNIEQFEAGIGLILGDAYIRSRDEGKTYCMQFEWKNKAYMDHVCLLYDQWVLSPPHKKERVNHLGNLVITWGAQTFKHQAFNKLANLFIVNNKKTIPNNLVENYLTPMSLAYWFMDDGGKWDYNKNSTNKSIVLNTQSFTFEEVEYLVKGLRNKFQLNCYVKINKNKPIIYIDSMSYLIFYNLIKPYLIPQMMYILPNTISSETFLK

In series [4] the target is T3, I-SceI K122I (UniProt P03882 1-235, K122I).
T3 sequence: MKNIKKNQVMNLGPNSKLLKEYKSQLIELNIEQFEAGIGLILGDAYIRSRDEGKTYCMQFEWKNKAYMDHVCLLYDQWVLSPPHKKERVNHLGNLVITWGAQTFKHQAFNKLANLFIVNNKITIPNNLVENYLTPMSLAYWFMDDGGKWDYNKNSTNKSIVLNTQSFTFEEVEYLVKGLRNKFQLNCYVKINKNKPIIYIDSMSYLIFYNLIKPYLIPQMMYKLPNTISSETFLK

Series [5] deals with T2, I-SceI K223I. This is another data set of the same source.
The target of series [6] is T3, I-SceI K122I. The source holds these as a separate data set.

Where two headings read alike, the source gives them in different places.

One may read the Kd as the equilibrium constant for the complex coming apart. Read a high Kd as a looser complex. In the series with I-SceI wild-type [1], CAGGGTAATATAGCCAATCCAATGATTGGCTATATTACCCTGTTAT (structured_DNA) [Hairpin product 46-mer (downstream cleavage product)] displayed a Kd of 0.0033 ± 0.0006 µM.

B1: Nicked bottom DNA strand substrate (structured_DNA)
DNA 1: GGTGAAACACTCGAACGCTAGGGATAACAGGGTAATATAGCCAATCCAATGATTGGCTATATTACCCTGTTAT
DNA 2: CCCTAGCGTTCGAGTGTTTCA
modifications: nick at bottom-strand cleavage site; 5' phosphate at nick (21-mer)
For B1, the equilibrium dissociation constant (Kd) was 0.0132 ± 0.0021 µM with I-SceI wild-type [2] and 0.0032 ± 0.0002 µM in the series with I-SceI wild-type [1].

B2: Duplex linear product (upstream cleavage product) (dsDNA)
DNA 1: GGTGAAACACTCGAACGCTAGGGATAA
DNA 2: CCCTAGCGTTCGAGTGTTTCA
In turn, B2 yielded a Kd with I-SceI wild-type [1] of 0.175 ± 0.048 µM.

B3: Nicked top DNA strand substrate (structured_DNA)
DNA 1: GGTGAAACACTCGAACGCTAGGGATAA
DNA 2: CAGGGTAATATAGCCAATCCAATGATTGGCTATATTACCCTGTTATCCCTAGCGTTCGAGTGTTTCA
modifications: nick at top-strand cleavage site; 5' phosphate at nick (67-mer)
With B3, the Kd was found to be 0.0194 ± 0.0007 µM in the series with I-SceI wild-type [2] and 0.0042 ± 0.0011 µM with I-SceI wild-type [1].

B4: 94-mer intact hairpin substrate (structured_DNA)
DNA: GGTGAAACACTCGAACGCTAGGGATAACAGGGTAATATAGCCAATCCAATGATTGGCTATATTACCCTGTTATCCCTAGCGTTCGAGTGTTTCA
As for B4, the dissociation constant Kd with I-SceI K223I [3] came out at 0.0154 ± 0.0003 µM; in the series with I-SceI wild-type [2], 0.0145 ± 0.0057 µM; in the series with I-SceI K122I [4], 0.0173 ± 0.0004 µM; in the series with I-SceI K223I [5], 0.0074 ± 0.0013 µM; with I-SceI wild-type [1], 0.0023 ± 0.0004 µM; with I-SceI K122I [6] it was 0.0073 ± 0.0004 µM.
